Columns and labels:
[1] = molecular target: T1, membrane palmitoylated protein 2, transcript variant 3 (human, UniProt Q14168 1-576); assay: protein array
T1 construct: on protein array; also called MPP2
T1 sequence: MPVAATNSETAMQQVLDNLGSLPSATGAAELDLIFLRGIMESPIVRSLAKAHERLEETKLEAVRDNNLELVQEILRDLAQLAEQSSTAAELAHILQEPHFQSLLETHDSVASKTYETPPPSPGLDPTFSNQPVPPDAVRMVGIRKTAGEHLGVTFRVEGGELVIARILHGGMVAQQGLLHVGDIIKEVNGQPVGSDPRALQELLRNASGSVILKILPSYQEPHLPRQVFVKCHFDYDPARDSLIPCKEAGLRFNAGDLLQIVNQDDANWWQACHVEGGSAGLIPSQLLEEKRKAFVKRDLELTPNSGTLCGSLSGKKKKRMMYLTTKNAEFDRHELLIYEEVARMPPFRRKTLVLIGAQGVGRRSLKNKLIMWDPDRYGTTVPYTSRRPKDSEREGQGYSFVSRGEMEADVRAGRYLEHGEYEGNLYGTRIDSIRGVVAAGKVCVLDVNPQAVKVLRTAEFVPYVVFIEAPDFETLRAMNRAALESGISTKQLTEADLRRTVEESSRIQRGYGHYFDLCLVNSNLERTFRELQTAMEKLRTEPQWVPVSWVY

[2] = molecular target: T2, kelch like family member 40 (human, UniProt Q2TBA0 1-621); assay: protein array
T2 construct: on protein array; also called KLHL40
T2 sequence: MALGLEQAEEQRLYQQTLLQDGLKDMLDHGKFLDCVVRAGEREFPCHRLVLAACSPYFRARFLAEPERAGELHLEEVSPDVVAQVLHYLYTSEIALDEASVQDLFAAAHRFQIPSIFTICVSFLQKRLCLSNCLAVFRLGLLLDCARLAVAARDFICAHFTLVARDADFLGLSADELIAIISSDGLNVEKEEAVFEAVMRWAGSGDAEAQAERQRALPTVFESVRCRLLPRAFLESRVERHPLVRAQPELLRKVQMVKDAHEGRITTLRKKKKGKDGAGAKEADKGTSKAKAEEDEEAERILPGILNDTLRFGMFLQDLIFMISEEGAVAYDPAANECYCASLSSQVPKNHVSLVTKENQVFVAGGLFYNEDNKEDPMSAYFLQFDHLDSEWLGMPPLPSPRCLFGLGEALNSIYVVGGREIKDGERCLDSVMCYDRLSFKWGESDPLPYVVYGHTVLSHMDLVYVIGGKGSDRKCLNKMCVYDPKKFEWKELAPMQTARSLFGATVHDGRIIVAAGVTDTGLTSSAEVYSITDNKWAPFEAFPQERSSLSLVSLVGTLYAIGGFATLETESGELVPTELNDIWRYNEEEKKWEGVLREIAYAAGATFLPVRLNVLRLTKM

[3] = molecular target: T3, retinoid X receptor alpha, transcript variant 1 (human, UniProt P19793 1-462)
T3 construct: HuProt array protein, full-length recombinant from yeast; also called RXRA
T3 sequence: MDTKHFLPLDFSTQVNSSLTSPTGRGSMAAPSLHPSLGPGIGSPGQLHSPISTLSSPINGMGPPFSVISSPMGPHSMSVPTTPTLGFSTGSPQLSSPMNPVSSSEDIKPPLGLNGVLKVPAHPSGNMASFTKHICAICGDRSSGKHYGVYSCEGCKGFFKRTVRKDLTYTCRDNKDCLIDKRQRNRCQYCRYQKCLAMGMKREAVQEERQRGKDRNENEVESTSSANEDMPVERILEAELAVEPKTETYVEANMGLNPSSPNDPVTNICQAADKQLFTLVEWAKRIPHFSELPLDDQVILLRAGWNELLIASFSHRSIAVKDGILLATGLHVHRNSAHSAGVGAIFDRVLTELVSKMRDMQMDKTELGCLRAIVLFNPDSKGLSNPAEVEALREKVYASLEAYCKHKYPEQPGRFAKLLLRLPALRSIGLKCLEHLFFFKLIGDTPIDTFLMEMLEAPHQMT

[4] = molecular target: T4, SNAP associated protein, transcript variant 1 (human, UniProt O95295 2-136)
T4 construct: HuProt array protein, full-length recombinant from yeast; also called SNAPIN
T4 sequence: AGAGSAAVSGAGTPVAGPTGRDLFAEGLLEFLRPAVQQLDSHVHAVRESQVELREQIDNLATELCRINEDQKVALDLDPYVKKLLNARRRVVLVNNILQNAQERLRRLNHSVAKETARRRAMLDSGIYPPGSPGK

B1: TBRE1012 (antibody, V domains shown)
VH: QVQLQESGPGLVKPTQTLSLTCTVSGGSISSGSYYWNWIRQPAGKGLEWIGNIYTSGNTDYNPSLKSRVTISLDTSKNQVSLNLTSVTAADTAVYYCATTPSSSWYWYFDPWGQGTLVTVSS
VL: DLQMTQSPSSLSASIGDRVTITCRASQSISTYFNWYQQKPGKAPKLLIYAASSLQSGVPSRFSGSGSGTDFTLTITSLQPEDFATYYCQQTYSNPWTFGQGTKVDFKR
notes: VH/VL only
B1: binds [1]; binds [2].

B2: TBLA1004 (antibody, V domains shown)
VH: QITLKESGPTLVKPTQTLTLTCTFSGFSLSTSGVGVGWIRQPPGKALEWLALIYWDDDKRYSPSLKSRLTITKDTSKNQVVLTMTNMDPVDTATYYCAHRAIVGLFDYWGQGTLVTVSS
VL: PSVLTQPPSASGTPGQRVTISCSGSSSNIGSNYVYWYQQLPGTAPKFLIYRNNQRPSGVPDRFSGSKSGTSASLAISGLRSEDEADYYCAAWEDSLSGPVFGGGTKLTVL
notes: detected with anti-human IgG Fc
B2: binds [3].

B3: TBLA1006 (antibody, V domains shown)
VH: VQLVDSGGGLVQPGRSLRLSCAASGFVFDDYAMHWVRQVPGKGLEWVSGISWNSVSIGYADSVKGRFTISRDNAKNSLYLQMNSLRPEDAALYYCVKSFSAEYYYYYYGMDVWGQGTTVTVSS
VL: LYVLTQPPSVSVAPGTTAWISCGGNNIGIKSVHWYQQKPGQAPLLVISYDSDRPSVIPERFSVSNSGNTVTLTISRVEAGDEADYYCQVWDNGHSHWVFGGGTKLTVLG
notes: as for B2
B3: binds [4].

Reference: patent US20220204643A1 (published 2022)
